Experimental data reported in the RNAGym collection of RNA variant scans (doi:10.1073/pnas.2313332121).

B1: TPR t1 (parent)
chain: GACCAAUCUGCCCUCAGAGCUCGAGAACAUCUUCGGAUGCAGAGGAGGCAGGCUUCGGUGGCGCGAUAGCGCCAACGUCCUCAACCUCCAAUGCAUCCCACCACAUGAUGAUGCCUGAAGAGCCUUGGUUUUUUG

Variants of: B1
Experiment: polymerase ribozyme fitness, log enrichment relative to wild type (log ratio); higher = more active; in vitro selection for triplet polymerase activity
Procedure, shortened: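 A heterodimeric triplet polymerase ribozyme had each of its subunits mutagenized by PCR into a library, which was transcribed. One round of in vitro selection, done in triplicate, annealed each library with a biotinylated primer, its partner subunit and triplets, then incubated it frozen at −7 °C before gel excision of extended constructs, streptavidin-bead capture and RT-PCR. Fitness is the logarithm of genotype enrichment relative to wild-type enrichment, based on Illumina sequencing of inputs and outputs and inverse-variance-weighted replicate averages. A base-2 logarithm is used, and genotypes were kept only with ≥10 input reads and ≥1 read per output.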

Row | Variant | polymerase ribozyme fitness (log ratio)
1 | C73U G117A G128C | -5.18
2 | G71U A75U C98U | -2.02
3 | A74U U96C | -0.884
4 | C72U C97U U106C A108G | -6.08
5 | A74U U125A U131G | -0.852
6 | C73U C104U C115A | 0.332
7 | C76G C123U | 1.06
8 | C73G U133G | -1.21
9 | G71U A91G A121U | 0.367
10 | C72A C89A | -0.502
11 | C72A C89U | -0.157
12 | C76G A90C C101U | -1
13 | C72U C73U C88U G113U U125A | -5.18
14 | C73A C86U C124A | 1.85
15 | A74U C114G C124A U125C | -1.43
16 | C72A G120U | 0.158
17 | C72U C101G | -2.18
18 | C72G U87G G117A | -2.09
19 | C73U C80A A90U U106A | -5.89
20 | C72U A105G | -3.04
21 | C72A C88G C124A | 1.33
22 | C73G C94A C102U | -3.82
23 | G71U U96A | -1.24
24 | C72U U87A | -0.188

Row | Variant | polymerase ribozyme fitness (log ratio)
25 | C76G G93A C104U U133A | -0.348
26 | A74U C104A C124G | 0.0488
27 | C72G U125G | -1.12
28 | C72A A83U C123G U126A | 0.126
29 | C73A A90U A105G G113C G122C | -3.65
30 | C73A A74C | -0.174
31 | C72A C82A U87A | -0.837
32 | G71U A95C C101U G127A | -3.11
33 | G71U C124A | 2.05
34 | C72U C86G | -0.742
35 | C73A A84U C88A G110A C123A U126C | -4.76
36 | C73G G127A | -1.82
37 | C72A A91C G117C | -4.28
38 | G71U C99G C115U | -7.86
39 | C72A G93C C102G | -6.8
40 | C72A G110A | -1.01
41 | C72G G127A | -1.26
42 | C72G G127C | -0.368
43 | A74G C102G U132C | -5.92
44 | C72G A111C | -0.642
45 | G71U G122U | -0.542
46 | C72A U130A | -0.443
47 | A75U C99U | -3.69
48 | C73G G113A | -1.29

Row | Variant | polymerase ribozyme fitness (log ratio)
49 | C72G U131G | -0.31
50 | C73G C124A | 1.65
51 | C73A C114A | -1.84
52 | C72U A83U C98U | -0.271
53 | C73A C123G | 1.74
54 | C73A C123A | 1.63
55 | C72A U125G U131A | -0.709
56 | C72A C85G G93A U106C | -1.13
57 | C73U A84U G110U | -1.67
58 | C72G G117C A119U | -0.356
59 | C72U U132C | -0.841
60 | C72G C124U | 1.15
61 | C76A C89A U133C | -2.43
62 | C73A G113C | -2.27
63 | C72G C123U | 0.62
64 | C73A G128C | -2.05
65 | C72U G93A C102U G117A | -4.25
66 | C73U U78C U92G | -2.25
67 | C73G G120A | -0.212
68 | C72G C80A | -5.5
69 | C76U C123G | 0.558
70 | C72U U92A A95U | -4.07
71 | C72G U81G C97U | -4.63
72 | G71U C72U A118G | -0.476

Row | Variant | polymerase ribozyme fitness (log ratio)
73 | C72U U109A | -5.61
74 | C72U C82G G110U | -2.93
75 | G71U C97U U112A | 1.1
76 | C72U C102A G120U U130G | -2.46
77 | A74C C82A A105U | -2.29
78 | C73A U87G | -0.467
79 | C73G A119U U132C | -1.94
80 | C72G A119G | 1.3
81 | A74U A83G C99U A100U G120U | -6.6
82 | C73G C102A | -2.76
83 | C72U C82A C115A | -1.79
84 | C72A U131C | -0.247
85 | C72U U87G C89U C123A | 0.156
86 | C73A A119G | 0.838
87 | C72A G107A | -4.95
88 | C73U G110A | -0.705
89 | C73U C82A | 0.468
90 | C73U A74G C99U | -3.36
91 | C72G C114A U130C U133G | -1.37
92 | G71C U96G G120U | -1.37
93 | C73A C99U A119U U130A | -4.24
94 | C72U A74U U106A G127A | -1.68
95 | C73G C115G | -0.331
96 | C73G C115U | -1.97

Row | Variant | polymerase ribozyme fitness (log ratio)
97 | C72G G77U C85U U106A U109A | -7.01
98 | C72U C102G | -5.51
99 | C72U C102A | -1.81
100 | C72U U126C | -0.816
101 | G71U U81G A111U | -6.76
102 | C72A C80U C114G | -3.31
103 | A74U G93A | -0.498
104 | C72U C98U U116A | -4.95
105 | C72U G120A | 0.502
106 | C72U G120C | 0.644
107 | A75G G113C | -2.4
108 | C72U C86G U126G | -3.16
109 | C73U U87C C89G G120A | -1.46
110 | C73U C76G U112G | -1.81
111 | C73A C82U | -0.0503
112 | C72A C94U | -0.00506
113 | G71C U112A | 0.348
114 | C72G U106A | -0.511
115 | C72U A83C C115G | -1.78
116 | A75G C114A | -2.36
117 | C73U U96C C99U | -3.39
118 | C73U C86G C115G U129A | -5.03
119 | C73G C101U U133A | -1.03
120 | C72G G113C C114U C115G C124U | -4.29

Row | Variant | polymerase ribozyme fitness (log ratio)
121 | C72U C94A | -1.26
122 | C72G C89U | -0.34
123 | C72U A91U A100U A119U | -3.58
124 | C73U C97U C102A U130C | -2.5
125 | G71U C82G G117A | -2.4
126 | C72U U78C C86G C115U | -1.64
127 | G71U C85A | -1.72
128 | C73U U96G G117A | -2.78
129 | C76U G120A | 1.69
130 | C76U G113U | -2.36
131 | C72G U126G | -2.09
132 | C72U G128U | -1.48
133 | C72G U81C C101U | -0.875
134 | C73U C124U | 1.94
135 | C76A A91G C115A | -0.508
136 | A74U C101U G113A C123G | -1.64
137 | C72G C101U | -0.7
138 | C72G C101A | -0.799
139 | C72G A111U U130G | -4.27
140 | C72U C86U U126G | -2.65
141 | C73A C86U A100U C102A | -2.87
142 | G71U C99A | -7.48
143 | C72G U92C | -1.36
144 | C72G A95C | -2.36

Row | Variant | polymerase ribozyme fitness (log ratio)
145 | C72G C80G U130C | -5.89
146 | C72A C86A | -0.267
147 | C73A C104U U130G U132C | 1.03
148 | C73G C86U | -1.29
149 | C73G C86G | -2.52
150 | A74U U87A | -0.842
151 | A74U C88G U112G U132G G135A | -0.922
152 | C76A G117A C124A | -0.549
153 | C76A G93C C94A U112G | -4.68
154 | C72U G135C | -0.00236
155 | C72U A91G C104A G127C | -4.76
156 | C73G A121C | 1.42
157 | A75G A83C G93C | -1.73
158 | C72U C86A A103C | -5.58
159 | C73G C85U G93U A95G C123A | -3.28
160 | C73U U106A | -0.212
161 | C72U U96G U126C | -1.75
162 | A75U C82G U96A C115G | -3.29
163 | G71U C89A U132A | -2.07
164 | G71U A74G | -5.51
165 | C73G A103C | -4.89
166 | A75G C80A G128U U133C G135C | -4.6
167 | C72G | -0.25
